The record followed here is article PMC12445344, “Influence of Calcium Ions on the Membrane Binding of S100B Protein” (Langmuir, 2025).

This data set deals with the molecule itself. The data set can be described thus: native gel or EMSA; Coomassie-stained 16% native gel; dimeric S100B sample. For orientation: In EMSA bound probe runs differently from free probe, usually more slowly.

B1: S100B protein (natural protein, human)
chain: SELEKAMVALIDVFHQYSGREGDKHKLKKSELKELINNELSHFLEEIKEQEVVDKVMETLDNDGDGECDFQEFMAFVAMVTTACHEFFEHE
notes: S100B, Homo sapiens, UniProt P04271; Gene carried in the pETDuet-1 vector; The protein is a homodimer as purified; the monomer was obtained by extensive dialysis against deionized water; also called dimeric S100B; monomeric S100B; source: E. coli BL21-CodonPlus (DE3)-RIL, purified (ammonium sulfate, HiTrap Q XL anion exchange)
For B1, the binding result is on record as “binds”.
